Measured values reported in paper PMC7761029, “Identifying Genes Involved in Alkaloid Biosynthesis in Vinca minor through Transcriptomics and Gene Co-Expression Analysis” (Biomolecules, 2020).

Key:
[1] = substrate: [H][C@]12N3CC=C[C@@]1(CC)CC(C(=O)OC)=C1Nc4cc(O)ccc4[C@@]12CC3; test: initial velocities of 16-methoxytabersonine formation, LC-MS, Michaelis-Menten non-linear regression; type: biochemical, Vinca minor; conditions: fixed SAM, 0.2-100 µM substrate, 50 mM potassium phosphate pH 7, 25 mM ascorbic acid, 30 °C
purified protein = substrate: C[S+](CC[C@H](N)C(=O)O)C[C@H]1O[C@@H](n2cnc3c(N)ncnc32)[C@H](O)[C@@H]1O; test: purified protein; conditions: methyl donor, fixed 16-hydroxytabersonine, 1-200 µM SAM, 50 mM potassium phosphate pH 7, 25 mM ascorbic acid, 30 °C

B1: Vm16OMT (Vinca minor) (protein)
chain: MDVQSDEFSKAQAHIWSQVLCHIPTATIKCAIELGIPDAIDNHGKAMTLAELTNSLPLINPSKAPFVRRLMRILVKNGFFSEQQITNDHIAYGLTPSSRILLKNEPLNLRGLVLANLDPSHMKSWVALSEWFQNDNEEAKTAFEIAHNGKNFWDYSAEDTEHAEIFNEAMASDSKLVSELLINTEYKLLFEGLTSMVDVGGGTGTIAKAIAKTFPNLNCTVFDLPHVVANLESMGNLEFVAGDMFVKIPPANAIFLKWILHDWNDEDCVKILKACKKAIPEKEKGGKVIVIDTVIGSKINDDESIKAQLSMDMGMMVDFASKERDEKEWASLFKEAGFSNYKIFPKLDFIRSVIEVYP
B1 gave a Km [1] of 0.94 ± 0.06 µM, a kcat [1] of 0.0144 s⁻¹ and a Km (purified protein) of 46.2 ± 6.1 µM. For the same protein, the kcat (purified protein) was 0.039 s⁻¹.
